Laboratory results reported in PMC6650551, “Identification of Dephospho-Coenzyme A (Dephospho-CoA) Kinase in Thermococcus kodakarensis and Elucidation of the Entire CoA Biosynthesis Pathway in Archaea” (mBio, 2019).

What was measured:
purified protein [1] = substrate: Nc1nc2c(ncn2[C@@H]2O[C@H](COP(=O)(O)OP(=O)(O)OP(=O)(O)O)[C@@H](O)[C@H]2O)c(=O)[nH]1; assay: purified protein; assay type: biochemical, Thermococcus kodakarensis; conditions: 1 mM dephospho-CoA, varied GTP, 5 mM MgCl2, 300 mM KCl, 50 mM Bicine pH 8.0, 80 °C
purified protein [2] = substrate: CC(C)(COP(=O)(O)OP(=O)(O)OC[C@H]1O[C@@H](n2cnc3c(N)ncnc32)[C@H](O)[C@@H]1O)[C@@H](O)C(=O)NCCC(=O)NCCS; assay: purified protein; assay type: biochemical, Thermococcus kodakarensis; conditions: 5 mM GTP varied dephospho-CoA, 5 mM MgCl2, 300 mM KCl, 50 mM Bicine pH 8.0, 80 °C

B1: TK1697 protein (Tk-DPCK) (Thermococcus kodakarensis KOD1) (protein)
chain: MKMFFRLTRELRDELKRPLGELVRGPIPEPYLKVRGELEKHPVVTVGDVVTENVLKIGVKPIIALYDLKTKRKEYSPEIEDTAVFLTVTNPPGTITKALLDTVRKAFGLAERGRNVHILVSGEEDLAAIPAVLYAPLGTLVLYGQPDEGVVLIKVTPECKRRCAKILASMEVVRDGD
notes: full-length gene in pET21a(+) (NdeI/EcoRI, own stop codon, untagged), expressed in E. coli BL21-CodonPlus(DE3)-RIL; calculated 19,657 Da
- Km (purified protein [1]): 260 ± 60 µM
- Vmax (purified protein [1]): 20.4 µmol/min/mg
- kcat (purified protein [1]): 6.68 s⁻¹
- kcat/Km (purified protein [1]): 25700 M⁻¹ s⁻¹
- Km (purified protein [2]): 140 ± 20 µM
- Vmax (purified protein [2]): 17 µmol/min/mg
- kcat (purified protein [2]): 5.57 s⁻¹
- kcat/Km (purified protein [2]): 40400 M⁻¹ s⁻¹
